± gives the uncertainty stated by the source.
Test: self-splicing fitness, log relative to wild type (ln ratio); higher = more splicing; Tetrahymena group I intron in knt gene, E. coli kanamycin selection, DiMSum; sequences stand for … in CUCUCU…GGAGGGAAAAGUUAUCAGGCAUGCACCUGGUAGCUAGUCUUUAAACCAAUAGAUUGCAUCGGUUUAAAAGGCAAGACCGUCAAAUUGCGGGAAAGGGGUCAACAGCCGUUCAGUACCAAGUCUCAGGGGAAACUUUGAGAUGGCCUUGCAAAGGGUAUGGUAAUAAGCUGACGGACAUGGUCCUAACCACGCAGCCAAGUCCUAAGUCAACAGAUCUUCUGUUGAUAUGGAUGCAGUUCACAGACUAAAUGUCGGUCGGGGAAGAUGUAUUCUUCUCAUAAGAUAUAGUCGGACCUCUCCUUAAUGGGAGCUAGCGGAUGAAGUGAUGCAACACUGGAGCCGCUGGGAACUAAUUUGUAUGCGAAAGUAUAUUGAUUAGUUUUGGAGUACUCGUGGUCG
Outline: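 Fitness was computed with DiMSum as the error-weighted combination of replicate fold changes, kanamycin versus none, each normalised to wild type. The library randomised all eight intron nucleotides of the P1ex region, with the intron placed in the knt kanamycin-resistance gene on pET-22b(+) in E. coli BL21(DE3). Six replicate transformations were grown overnight at 37°C or 30°C on LB agar with or without 25 μg/mL kanamycin, plus 100 μg/mL carbenicillin, 50 μM IPTG and 0.2% rhamnose. Pooled colonies were amplicon-sequenced on an Illumina HiSeq 2500.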

Row | Sequence | self-splicing fitness (ln) (30 °C) | self-splicing fitness (ln) (37 °C)
1 | ACACAGCAAUAUUACGACGG | -0.479 ± 0.073 | -0.0997 ± 0.11
2 | UACCAGCAAUAUUACGUGAU | -1.93 ± 0.063 | -1.41 ± 0.074
3 | AGACAGCAAUAUUACGAGAC | – | -1.59 ± 0.37
4 | AUAAAGCAAUAUUACGAAUA | -0.578 ± 0.14 | -0.302 ± 0.26
5 | CAACAGCAAUAUUACGGAGG | -1.33 ± 0.048 | -0.382 ± 0.065
6 | UCGUAGCAAUAUUACGCGGU | -2.32 ± 0.15 | -1.6 ± 0.18
7 | UCUAAGCAAUAUUACGCAAA | -3.34 ± 0.21 | -2.97 ± 0.2
8 | GACCAGCAAUAUUACGUCCU | -1.86 ± 0.1 | 0.317 ± 0.11
9 | CAAGAGCAAUAUUACGGAAA | -2.9 ± 0.22 | -2.82 ± 0.22
10 | UCGUAGCAAUAUUACGGCCG | -1.51 ± 0.36 | -0.102 ± 0.27
11 | GAACAGCAAUAUUACGUACA | -0.915 ± 0.073 | -0.72 ± 0.082
12 | UACAAGCAAUAUUACGACAU | -1.474 ± 0.012 | -0.59 ± 0.032
13 | UAGCAGCAAUAUUACGACAU | -1.604 ± 0.013 | -0.682 ± 0.033
14 | GACUAGCAAUAUUACGCUCA | -0.407 ± 0.1 | -0.306 ± 0.11
15 | GCUAAGCAAUAUUACGGAUG | -1.52 ± 0.081 | -0.677 ± 0.12
16 | AAGGAGCAAUAUUACGCGCC | -2.85 ± 0.24 | -1.19 ± 0.17
17 | AGAAAGCAAUAUUACGCGCC | -0.784 ± 0.11 | 0.139 ± 0.14
18 | ACCGAGCAAUAUUACGGGCG | -1.64 ± 0.083 | -0.0363 ± 0.088
19 | UGGAAGCAAUAUUACGUGAA | -1.33 ± 0.096 | -1.65 ± 0.12
20 | UCGUAGCAAUAUUACGCGUC | – | -2.59 ± 0.33
21 | UCACAGCAAUAUUACGCCGA | -0.333 ± 0.1 | 0.184 ± 0.14
22 | CCCGAGCAAUAUUACGGACU | -2.57 ± 0.11 | -2.19 ± 0.2
23 | UUGUAGCAAUAUUACGCAAG | -1.29 ± 0.17 | -0.849 ± 0.2
24 | UCGUAGCAAUAUUACGGAGU | -2.81 ± 0.24 | –
25 | CACUAGCAAUAUUACGGGCG | -0.464 ± 0.087 | -0.0972 ± 0.084

Row | Sequence | self-splicing fitness (ln) (30 °C) | self-splicing fitness (ln) (37 °C)
26 | GUCAAGCAAUAUUACGGGCU | -4.5 ± 0.25 | -4.77 ± 0.31
27 | GCGAAGCAAUAUUACGUGAG | -1.89 ± 0.091 | -2.01 ± 0.1
28 | GAAUAGCAAUAUUACGUGGC | -3.67 ± 0.27 | -1.34 ± 0.17
29 | UGCCAGCAAUAUUACGUCAG | -2.49 ± 0.11 | -1.53 ± 0.14
30 | GAUAAGCAAUAUUACGCGCA | -0.808 ± 0.085 | 0.383 ± 0.13
31 | AGUGAGCAAUAUUACGUCCG | – | -0.894 ± 0.22
32 | UUGCAGCAAUAUUACGAGUG | -1.61 ± 0.1 | -1.46 ± 0.13
33 | CGUAAGCAAUAUUACGUCAC | – | -2.59 ± 0.44
34 | CGCUAGCAAUAUUACGGAAA | -2.34 ± 0.41 | -1.49 ± 0.33
35 | GCCGAGCAAUAUUACGUAAC | -2.89 ± 0.19 | -0.977 ± 0.2
36 | AAAUAGCAAUAUUACGGGGC | -3.72 ± 0.32 | -2.34 ± 0.29
37 | AUGAAGCAAUAUUACGGCGG | -0.365 ± 0.083 | 0.476 ± 0.11
38 | CCAAAGCAAUAUUACGCACU | -2.09 ± 0.19 | -2.75 ± 0.23
39 | GAUAAGCAAUAUUACGGGAU | -2.39 ± 0.18 | -1.89 ± 0.19
40 | CCCAAGCAAUAUUACGCUGA | -3.51 ± 0.25 | -3.69 ± 0.34
41 | GGGCAGCAAUAUUACGCCCU | -2.78 ± 0.4 | –
42 | UGACAGCAAUAUUACGGUGC | -2.01 ± 0.49 | –
43 | AGGCAGCAAUAUUACGAAGA | -1.96 ± 0.29 | -1.12 ± 0.18
44 | CGGAAGCAAUAUUACGUUGU | -3.82 ± 0.22 | -2.88 ± 0.24
45 | UACUAGCAAUAUUACGAAUA | -1.51 ± 0.18 | -0.474 ± 0.13
46 | GCCCAGCAAUAUUACGGAUA | -0.88 ± 0.078 | 0.215 ± 0.089
47 | AGUCAGCAAUAUUACGUGUA | -3.11 ± 0.14 | -0.76 ± 0.086
48 | UGACAGCAAUAUUACGAGAU | -3.55 ± 0.23 | -2.86 ± 0.26
49 | AUGUAGCAAUAUUACGAUUA | -0.6 ± 0.14 | 0.00536 ± 0.13
50 | GCAUAGCAAUAUUACGUUGC | -3.65 ± 0.21 | -1.72 ± 0.21
